Laboratory results from the supplement of paper PMC5998384.

Key:
HeLa Kyoto [1] = assay: solubility in G1/S (NP-40 vs SDS abundance) (log2 ratio); higher = more soluble; conditions: cell cycle stage: G1/S
HeLa Kyoto [2] = assay: melting temperature (median over replicates), in situ; higher = more thermally stable
HeLa Kyoto [3] = assay: solubility change mitosis vs G1/S (difference of NP-40 vs SDS log2 ratios) (log2 ratio difference); higher = more soluble in mitosis
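Wherever melting temperature (median over replicates), in situ is given: HeLa Kyoto cells synchronized by double thymidine or nocodazole block, proteins quantified by TMT10plex mass spectrometry, three independent biological replicates.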
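Wherever solubility change mitosis vs G1/S (difference of NP-40 vs SDS log2 ratios) is given: synchronized HeLa Kyoto cells (double thymidine block for G1/S, nocodazole release for mitosis), protein amounts in NP-40 versus SDS lysates quantified by mass spectrometry, three biological replicates.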
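Wherever solubility in G1/S (NP-40 vs SDS abundance) is given: HeLa Kyoto cells arrested at G1/S by double thymidine block, proteins quantified by TMT10plex mass spectrometry in mild NP-40 versus SDS extracts, three biological replicates.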

| Sequence | solubility in G1/S (log2) (HeLa Kyoto [1]) | melting temperature (HeLa Kyoto [2]; cell cycle stage: G1/S) [°C] | melting temperature (HeLa Kyoto [2]; cell cycle stage: mitosis) [°C] | solubility change mitosis (log2) (HeLa Kyoto [3]) |
| --- | --- | --- | --- | --- |
| MAAHLSYGRVNLNVLREAVRRELREFLDKCAGSKAIVWDEYLTGPFGLIAQYSLLKEHEVEKMFTLKGNRLPAADVKNIIFFVRPRLELMDIIAENVLSEDRRGPTRDFHILFVPRRSLLCEQRLKDLGVLGSFIHREEYSLDLIPFDGDLLSMESEGAFKECYLEGDQTSLYHAAKGLMTLQALYGTIPQIFGKGECARQVANMMIRMKREFTGSQNSIFPVFDNLLLLDRNVDLLTPLATQLTYEGLIDEIYGIQNSYVKLPPEKFAPKKQGDGGKDLPTEAKKLQLNSAEELYAEIRDKNFNAVGSVLSKKAKIISAAFEERHNAKTVGEIKQFVSQLPHMQAARGSLANHTSIAELIKDVTTSEDFFDKLTVEQEFMSGIDTDKVNNYIEDCIAQKHSLIKVLRLVCLQSVCNSGLKQKVLDYYKREILQTYGYEHILTLHNLEKAGLLKPQTGGRNNYPTIRKTLRLWMDDVNEQNPTDISYVYSGYAPLSVRLAQLLSRPGWRSIEEVLRILPGPHFEERQPLPTGLQKKRQPGENRVTLIFFLGGVTFAEIAALRFLSQLEDGGTEYVIATTKLMNGTSWIEALMEKPF [VPS33A] | -0.0025 | 49.4 | 49.9 | -0.165 |
| MAAQLLEEKLTCAICLGLYQDPVTLPCGHNFCGACIRDWWDRCGKACPECREPFPDGAELRRNVALSGVLEVVRAGPARDPGPDPGPGPDPAARCPRHGRPLELFCRTEGRCVCSVCTVRECRLHERALLDAERLKREAQLRASLEVTQQQATQAEGQLLELRKQSSQIQNSACILASWVSGKFSSLLQALEIQHTTALRSIEVAKTQALAQARDEEQRLRVHLEAVARHGCRIRELLEQVDEQTFLQESQLLQPPGPLGPLTPLQWDEDQQLGDLKQLLSRLCGLLLEEGSHPGAPAKPVDLAPVEAPGPLAPVPSTVCPLRRKLWQNYRNLTFDPVSANRHFYLSRQDQQVKHCRQSRGPGGPGSFELWQVQCAQSFQAGHHYWEVRASDHSVTLGVSYPQLPRCRLGPHTDNIGRGPCSWGLCVQEDSLQAWHNGEAQRLPGVSGRLLGMDLDLASGCLTFYSLEPQTQPLYTFHALFNQPLTPVFWLLEGRTLTLCHQPGAVFPLGPQEEVLS [TRIM65] | -0.0459 | 49.2 | 49.3 | -0.0816 |
| MAARGRRAEPQGREAPGPAGGGGGGSRWAESGSGTSPESGDEEVSGAGSSPVSGGVNLFANDGSFLELFKRKMEEEQRQRQEEPPPGPQRPDQSAAAAGPGDPKRKGGPGSTLSFVGKRRGGNKLALKTGIVAKKQKTEDEVLTSKGDAWAKYMAEVKKYKAHQCGDDDKTRPLVK [C19ORF43] | 0.0485 | 54.8 | 51.3 | 0.898 |
| MAASTASHRPIKGILKNKTSTTSSMVASAEQPRGNVDEELSKKSQKWDEMNILATYHPADKDYGLMKIDEPSTPYHSMMGDDEDACSDTEATEAMAPDILARKLAAAEGLEPKYRIQEQESSGEEDSDLSPEEREKKRQFEMKRKLHYNEGLNIKLARQLISKDLHDDDEDEEMLETADGESMNTEESNQGSTPSDQQQNKLRSS [PPP1R2] | 0.172 | 59.3 | 52.4 | 0.383 |
| MACLSPSQLQKFQQDGFLVLEGFLSAEECVAMQQRIGEIVAEMDVPLHCRTEFSTQEEEQLRAQGSTDYFLSSGDKIRFFFEKGVFDEKGNFLVPPEKSINKIGHALHAHDPVFKSITHSFKVQTLARSLGLQMPVVVQSMYIFKQPHFGGEVSPHQDASFLYTEPLGRVLGVWIAVEDATLENGCLWFIPGSHTSGVSRRMVRAPVGSAPGTSFLGSEPARDNSLFVPTPVQRGALVLIHGEVVHKSKQNLSDRSRQAYTFHLMEASGTTWSPENWLQPTAELPFPQLYT [PHYHD1] | 0.198 | 50.2 | 51.2 | -0.137 |
| MAELGLNEHHQNEVINYMRFARSKRGLRLKTVDSCFQDLKESRLVEDTFTIDEVSEVLNGLQAVVHSEVESELINTAYTNVLLLRQLFAQAEKWYLKLQTDISELENRELLEQVAEFEKAEITSSNKKPILDVTKPKLAPLNEGGTAELLNKEILRLQEENEKLKSRLKTIEIQATNALDEKSKLEKALQDLQLDQGNQKDFIKAQDLSNLENTVAALKSEFQKTLNDKTENQKSLEENLATAKHDLLRVQEQLHMAEKELEKKFQQTAAYRNMKEILTKKNDQIKDLRKRLAQYEPED [LZTFL1] | 0.713 | 53.2 | 52.7 | 0.0593 |
| MAGAGGGGCPAGGNDFQWCFSQVKGAIDEDVAEADIISTVEFNYSGDLLATGDKGGRVVIFQREQENKSRPHSRGEYNVYSTFQSHEPEFDYLKSLEIEEKINKIRWLPQQNAAHFLLSTNDKTIKLWKISERDKRAEGYNLKDEDGRLRDPFRITALRVPILKPMDLMVEASPRRIFANAHTYHINSISVNSDHETYLSADDLRINLWHLEITDRSFNIVDIKPANMEELTEVITAAEFHPHQCNVFVYSSSKGTIRLCDMRSSALCDRHSKFFEEPEDPSSRSFFSEIISSISDVKFSHSGRYMMTRDYLSVKVWDLNMESRPVETHQVHEYLRSKLCSLYENDCIFDKFECCWNGSDSAIMTGSYNNFFRMFDRDTRRDVTLEASRESSKPRASLKPRKVCTGGKRRKDEISVDSLDFNKKILHTAWHPVDNVIAVAATNNLYIFQDKIN [PPP2R2D] | -0.162 | 53.1 | – | -0.168 |
| MAGIPGLLFLLFFLLCAVGQVSPYSAPWKPTWPAYRLPVVLPQSTLNLAKPDFGAEAKLEVSSSCGPQCHKGTPLPTYEEAKQYLSYETLYANGSRTETQVGIYILSSSGDGAQHRDSGSSGKSRRKRQIYGYDSRFSIFGKDFLLNYPFSTSVKLSTGCTGTLVAEKHVLTAAHCIHDGKTYVKGTQKLRVGFLKPKFKDGGRGANDSTSAMPEQMKFQWIRVKRTHVPKGWIKGNANDIGMDYDYALLELKKPHKRKFMKIGVSPPAKQLPGGRIHFSGYDNDRPGNLVYRFCDVKDETYDLLYQQCDAQPGASGSGVYVRMWKRQQQKWERKIIGIFSGHQWVDMNGSPQDFNVAVRITPLKYAQICYWIKGNYLDCREG [PRSS23] | -0.403 | 53.2 | 53.6 | 0.203 |
| MAGPESDAQYQFTGIKKYFNSYTLTGRMNCVLATYGSIALIVLYFKLRSKKTPAVKAT [USMG5] | -1.21 | 55 | 52.6 | -0.0955 |
| MALAGCPDSFLHHPYYQDKVEQTPRSQQDPAGPGLPAQSDRLANHQEDDVDLEALVNDMNASLESLYSACSMQSDTVPLLQNGQHARSQPRASGPPRSIQPQVSPRQRVQRSQPVHILAVRRLQEEDQQFRTSSLPAIPNPFPELCGPGSPPVLTPGSLPPSQAAAKQDVKVFSEDGTSKVVEILADMTARDLCQLLVYKSHCVDDNSWTLVEHHPHLGLERCLEDHELVVQVESTMASESKFLFRKNYAKYEFFKNPMNFFPEQMVTWCQQSNGSQTQLLQNFLNSSSCPEIQGFLHVKELGKKSWKKLYVCLRRSGLYCSTKGTSKEPRHLQLLADLEDSNIFSLIAGRKQYNAPTDHGLCIKPNKVRNETKELRLLCAEDEQTRTCWMTAFRLLKYGMLLYQNYRIPQQRKALLSPFSTPVRSVSENSLVAMDFSGQTGRVIENPAEAQSAALEEGHAWRKRSTRMNILGSQSPLHPSTLSTVIHRTQHWFHGRISREESHRIIKQQGLVDGLFLLRDSQSNPKAFVLTLCHHQKIKNFQILPCEDDGQTFFSLDDGNTKFSDLIQLVDFYQLNKGVLPCKLKHHCIRVAL [GRB10] | 0.159 | 48.1 | 49.1 | -0.231 |
| MAPERLRSRALSAFKLRGLLLRGEAIKYLTEALQSISELELEDKLEKIINAVEKQPLSSNMIERSVVEAAVQECSQSVDETIEHVFNIIGAFDIPRFVYNSERKKFLPLLMTNHPAPNLFGTPRDKAEMFRERYTILHQRTHRHELFTPPVIGSHPDESGSKFQLKTIETLLGSTTKIGDAIVLGMITQLKEGKFFLEDPTGTVQLDLSKAQFHSGLYTEACFVLAEGWFEDQVFHVNAFGFPPTEPSSTTRAYYGNINFFGGPSNTSVKTSAKLKQLEEENKDAMFVFLSDVWLDQVEVLEKLRIMFAGYSPAPPTCFILCGNFSSAPYGKNQVQALKDSLKTLADIICEYPDIHQSSRFVFVPGPEDPGFGSILPRPPLAESITNEFRQRVPFSVFTTNPCRIQYCTQEITVFREDLVNKMCRNCVRFPSSNLAIPNHFVKTILSQGHLTPLPLYVCPVYWAYDYALRVYPVPDLLVIADKYDPFTTTNTECLCINPGSFPRSGFSFKVFYPSNKTVEDSKLQGF [POLE2] | 0.148 | 50 | 49.6 | -0.129 |
| MAQEEEDVRDYNLTEEQKAIKAKYPPVNRKYEYLDHTADVQLHAWGDTLEEAFEQCAMAMFGYMTDTGTVEPLQTVEVETQGDDLQSLLFHFLDEWLYKFSADEFFIPREVKVLSIDQRNFKLRSIGWGEEFSLSKHPQGTEVKAITYSAMQVYNEENPEVFVIIDI [ZBTB8OS] | 0.153 | 52.6 | 53.1 | 0.0908 |
| MAQGWAGFSEEELRRLKQTKDPFEPQRRLPAKKSRQQLQREKALVEQSQKLGLQDGSTSLLPEQLLSAPKQRVNVQKPPFSSPTLPSHFTLTSPVGDGQPQGIESQPKELGLENSHDGHNNVEILPPKPDCKLEKKKVELQEKSRWEVLQQEQRLMEEKNKRKKALLAKAIAERSKRTQAETMKLKRIQKELQALDDMVSADIGILRNRIDQASLDYSYARKRFDRAEAEYIAAKLDIQRKTEIKEQLTEHLCTIIQQNELRKAKKLEELMQQLDVEADEETLELEVEVERLLHEQEVESRRPVVRLERPFQPAEESVTLEFAKENRKCQEQAVSPKVDDQCGNSSSIPFLSPNCPNQEGNDISAALAT [GORAB] | 0.431 | – | 50.9 | 0.118 |
| MAQQANVGELLAMLDSPMLGVRDDVTAVFKENLNSDRGPMLVNTLVDYYLETSSQPALHILTTLQEPHDKHLLDRINEYVGKAATRLSILSLLGHVIRLQPSWKHKLSQAPLLPSLLKCLKMDTDVVVLTTGVLVLITMLPMIPQSGKQHLLDFFDIFGRLSSWCLKKPGHVAEVYLVHLHASVYALFHRLYGMYPCNFVSFLRSHYSMKENLETFEEVVKPMMEHVRIHPELVTGSKDHELDPRRWKRLETHDVVIECAKISLDPTEASYEDGYSVSHQISARFPHRSADVTTSPYADTQNSYGCATSTPYSTSRLMLLNMPGQLPQTLSSPSTRLITEPPQATLWSPSMVCGMTTPPTSPGNVPPDLSHPYSKVFGTTAGGKGTPLGTPATSPPPAPLCHSDDYVHISLPQATVTPPRKEERMDSARPCLHRQHHLLNDRGSEEPPGSKGSVTLSDLPGFLGDLASEEDSIEKDKEEAAISRELSEITTAEAEPVVPRGGFDSPFYRDSLPGSQRKTHSAASSSQGASVNPEPLHSSLDKLGPDTPKQAFTPIDLPCGSADESPAGDRECQTSLETSIFTPSPCKIPPPTRVGFGSGQPPPYDHLFEVALPKTAHHFVIRKTEELLKKAKGNTEEDGVPSTSPMEVLDRLIQQGADAHSKELNKLPLPSKSVDWTHFGGSPPSDEIRTLRDQLLLLHNQLLYERFKRQQHALRNRRLLRKVIKAAALEEHNAAMKDQLKLQEKDIQMWKVSLQKEQARYNQLQEQRDTMVTKLHSQIRQLQHDREEFYNQSQELQTKLEDCRNMIAELRIELKKANNKVCHTELLLSQVSQKLSNSESVQQQMEFLNRQLLVLGEVNELYLEQLQNKHSDTTKEVEMMKAAYRKELEKNRSHVLQQTQRLDTSQKRILELESHLAKKDHLLLEQKKYLEDVKLQARGQLQAAESRYEAQKRITQVFELEILDLYGRLEKDGLLKKLEEEKAEAAEAAEERLDCCNDGCSDSMVGHNEEASGHNGETKTPRPSSARGSSGSRGGGGSSSSSSELSTPEKPPHQRAGPFSSRWETTMGEASASIPTTVGSLPSSKSFLGMKARELFRNKSESQCDEDGMTSSLSESLKTELGKDLGVEAKIPLNLDGPHPSPPTPDSVGQLHIMDYNETHHEHS [TSC1] | 0.0426 | 50.2 | 50.7 | -0.187 |
